A short description of data set [1]: Thermal denaturation followed by fluorescence ratio, two-state fit. The note with it: thermal stability of the 183C acrylodan conjugate mutant. The data set is classed as physicochemical. On the procedure: (§1) The titration series were mixed with GGBP183C⋅acrylodan or BD_SM4⋅acrylodan conjugates in 384-well microtiter plates. The temperature dependence of the titrations was measured in a real-time PCR machine (Roche LightCycler 480) by determining the ratio of fluorescence emission intensities at 488, 510, and 580 nm (excitation at 440 nm) as a function of temperature (290-370K). Temperatures were advanced in 1K steps. At each temperature data was collected for at 1-second intervals for 60 seconds at which point the signal had relaxed to a steady value associated with the new temperature. Collection times were adjusted to minimize photobleaching (which was not detectable under these experimental conditions). Data reduction software was developed to convert these observations into time-independent datasets that record fluorescence as a function of temperature for each well and associate wells with their concentration of titrant and additive. Management tools were developed to maintain a database of titrations and their analyses.
Fits of these equation systems to experimental observations such as shown in FIG. 5 require good initial estimates of the parameters. These can then be refined using multi-dimensional conjugate gradient methods. To obtain local fits for protein thermostability in the absence of ligand we solve
This gives excellent fits (FIG. 7).

The nature of data set [2]: Glucose titration at room temperature on Nanodrop3300 fluorimeter. It is filed as binding. On the procedure:
(§2) In addition to the Roche LightCycler, which has a limited choice of emission wavelengths, data for selected mutants also was measured at room temperature on a Nanodrop3300 (Thermo Scientific) fluorimeter, which records full emission spectra. Emission intensities at a particular wavelength were extracted by integration of the spectral emission intensities over a 20-nm interval centered on that wavelength.
(§3) Signals S (either single-wavelength emission intensities, LT, or ratios of intensities at two wavelengths, Rig) were fit to ligand-binding isotherms:
(§4) where [L] is the ligand concentration and Kd the dissociation constant corresponding to ^appKd or ^trueKd for fits to R12 (weighted by the relative contributions of ^satβ at the two different wavelengths) and Iλ respectively. For a given isothermal titration, values for ^appKd and ^true Kd were obtained using a non-linear fitting algorithm in which these two parameters were simultaneously fit to the three experimental binding isotherms using equations 29 and 30, with the two monochromatic isotherms sharing the same ^trueKd value. Three separate pairs of ^apoβ and ^satβ were fit in this procedure.

Data set [3] can be described thus: Fluorescence emission response to ligand binding. As to conditions: glucose titration; Nanodrop3300; room temperature. Also noted: key to Response Intensity^c: +, increases in response to ligand; —: decreases; 0, no change in the glucose titration; key to Response Shape^b: m, monochromatic; d, dichromatic (i.e. spectral shape changes); 0, no change in the glucose titration. On the procedure: as §1, §2

Data set [4] can be described thus: Galactose titration at room temperature on Nanodrop3300 fluorimeter. The data set is classed as binding. As to conditions: ^e noisy data. The procedure:
as §2, §3, §4

A short description of data set [5]: Isothermal glucose titrations from fluorescent landscapes (Roche LightCycler). It is filed as binding. On the procedure:
as §1
The response of acrylodan to glucose binding was separated from the effects of thermal denaturation by extracting binding isotherms within the temperature range where the apo-protein remains >99% folded (T<320 K; FIG. 7). Within this temperature range, binding isotherms were constructed by extracting fluorescence values across different wells, each containing different glucose concentrations, at a given temperature, and fit individually with high accuracy to isotherms (FIG. 8):
using linear baselines which vary individually in accordance with the tilt of the S, S1, and S2 baseplanes that correspond the saturated glucose complex. The individually fit Kd(T) values were converted into ΔGb(T) and fit to the Gibbs-Helmholtz equation 9 (FIG. 9).
Analysis of mutant affinity values: Isothermal glucose titrations were extracted from the fluorescent landscape or emission datasets as described above. Monochromatic emission intensities Iλ. (these intensities correspond to a bandpass intensity recorded with a physical filter in the case of the Roche LightCycler) were fit to
where ^apoIλ2 ^apoIλ2 and ^satIλ2^satIλ2 are the emission intensities of the monochromatic signal at wavelength λ2λ2 of the ligand-free and ligand-bound protein, respectively. Equation 28 illustrates that the ^appKd ^appKd values obtained by fits of 25 to ratiometric signals are wavelength dependent. To obtain wavelength-independent values needed for comparison of mutant proteins, it is necessary to simultaneously fit ^appKd ^appKd to the ratiometric signal and ^trueKd ^trueKd to the two monochromatic signals. For a given isothermal titration, values for ^appKd ^appKd and ^trueKd ^trueKd were obtained using a non-linear fitting algorithm in which these two parameters were simultaneously fit to the three experimental binding isotherms using equations 23 and 27, with the two monochromatic isotherms sharing the same ^trueKd ^trueKd value. Three separate pairs of linear ^apoβ ^apoβ and ^satβ ^satβ baselines were fit in this procedure. TABLES 1-5 record the ^trueKd ^trueKd values at 25° C., obtained by analysis of Roche LightCycler data in 488 nm and 510 nm channels. The uncertainty of the fit (‘error’) was obtained using a boot-strapping technique in which 37% of the data was replicated. In all cases, no binding was recorded if one of ^appKd ^appKd or ^trueKd ^trueKd exceeded 200 mM. The glucose constant of GGBP183 C-acrylodan is 4.21±0.08 mM at 25° C.

Assay in data set [6]: as above
The data set is classed as binding. As to conditions: 37° C.; mutations in GGBP183C⋅acrylodan; read-out: glucose Kd values at 37° C.

[7] abbreviates: apparent, ratiometric signal at the listed wavelength pair, read-out: Affinities (mM)^d Glucose aPPKa.
Setting [8] is: from monochromatic signals, read-out: Affinities (mM)^d Glucose trueKa.
[9] abbreviates: apparent, ratiometric signal at the listed wavelength pair, read-out: Affinities (mM)^d Galactose ^appKd.
[10] abbreviates: from monochromatic signals, read-out: Affinities (mM)^d Galactose ^trueKd.
Where [11] appears, read: 25° C., read-out: glucose affinities.

Turning to “A155F: GGBP 183C acrylodan conjugate with mutation A155F”, the Tm/K in data set [1] came out at 321 K. For the same substance, the Kd was found to be 0.06 mM in data set [2] (setting [7]), 0.06 mM in data set [2] (setting [8]), 0.82 mM in data set [4] (setting [9]) and 0.93 mM in data set [4] (setting [10]). Further, the “Response Intensity^c” value in data set [3] is listed as “—”. Further, in data set [3], the “Response Shape^b” value was “m”.
Take “A155K: GGBP 183C acrylodan conjugate with mutation A155K”: the Tm/K in data set [1] is 318 K.
“A155L: GGBP 183C acrylodan conjugate with mutation A155L”: in data set [1], the Tm/K worked out at 320 K.
On to “A155M: GGBP 183C acrylodan conjugate with mutation A155M”, for which the Tm/K in data set [1] was 321 K. The Kd in data set [2] (setting [7]) turned out to be 0.05 mM; in data set [2] (setting [8]) it was 0.05 mM; in data set [4] (setting [9]) it was 6.7 mM; in data set [4] (setting [10]), 8.7 mM. Further, in data set [3], the “Response Intensity^c” value is on record as “—”. Moreover, the “Response Shape^b” value in data set [3] is “m”.
Take “A155Q: GGBP 183C acrylodan conjugate with mutation A155Q”: in data set [1], the Tm/K was 321 K.
With “A155S: GGBP 183C acrylodan conjugate with mutation A155S”, in data set [1], the Tm/K was 321 K. Besides, the Kd in data set [2] (setting [7]) came to 0.31 mM. Also, the Kd in data set [2] (setting [8]) was 0.35 mM. Besides, in data set [3], the “Response Intensity^c” value is listed as “—” and the “Response Shape^b” value is recorded as “m?”.
Regarding “A155W: GGBP 183C acrylodan conjugate with mutation A155W”, the Tm/K in data set [1] came out at 322 K.
Still for that read-out and setting: with “A155Y: GGBP 183C acrylodan conjugate with mutation A155Y” the figure was 321 K; with “D14E: GGBP 183C acrylodan conjugate with mutation D14E”, 318 K.
In the case of “D14H: GGBP 183C acrylodan conjugate with mutation D14H”, in data set [1], the Tm/K turned out to be 317 K.
Turning to “D14L: GGBP 183C acrylodan conjugate with mutation D14L”, the Tm/K in data set [1] is 311 K.
On to “D14N: GGBP 183C acrylodan conjugate with mutation D14N”, for which, in data set [1], the Tm/K turned out to be 317 K.
For the substance “D14T: GGBP 183C acrylodan conjugate with mutation D14T”, the Tm/K in data set [1] is given as 316 K.
In the case of “D154A: GGBP 183C acrylodan conjugate with mutation D154A”, the Tm/K in data set [1] turned out to be 320 K.
The same measure, in the same setting: in the case of “D154N: GGBP 183C acrylodan conjugate with mutation D154N” it was 318 K; in that of “D236A: GGBP 183C acrylodan conjugate with mutation D236A”, 320 K.
For the substance “D236N: GGBP 183C acrylodan conjugate with mutation D236N”, the Tm/K in data set [1] is recorded as 320 K.
As to “F16A: GGBP 183C acrylodan conjugate with mutation F16A”, the Tm/K in data set [1] was 319 K.
As for “F16L: GGBP 183C acrylodan conjugate with mutation F16L”, the Tm/K in data set [1] amounted to 321 K.
As to “GGBP16C-acrylodan: F16C mutant of E. coli GGBP, acrylodan conjugate”, in data set [5] (setting [11]), the Kd is roughly 0.2 mM.
Take “GGBP16C-badan: F16C mutant of E. coli GGBP, badan conjugate”: the Kd in data set [5] (setting [11]) was roughly 0.2 mM.
For the substance “H152A: GGBP 183C acrylodan conjugate with mutation H152A”, the Tm/K in data set [1] is given as 316 K.
Turning to “H152F: GGBP 183C acrylodan conjugate with mutation H152F”, the Tm/K in data set [1] stood at 321 K. The Kd in data set [5] (trueKd at 25° C., 183C acrylodan conjugates, LightCycler 488 nm and 510 nm channels, ± = bootstrap uncertainty of fit, read-out: Kd^298K(glucose)/mM) was 21.1 ± 0.9 mM; in data set [2] (setting [7]), 15 mM; in data set [2] (setting [8]), 16 mM; in data set [6], roughly 17000 µM. The “Response Intensity^c” value in data set [3] is on record as “—”. In data set [3], the “Response Shape^b” value is on record as “d”.
“H152K: GGBP 183C acrylodan conjugate with mutation H152K”: the Tm/K in data set [1] is on record as 319 K.
With “K92A: GGBP 183C acrylodan conjugate with mutation K92A”, the Tm/K in data set [1] was determined as 323 K.
As for “M182W: GGBP 183C acrylodan conjugate with mutation M182W”, in data set [1], the Tm/K is recorded as 322 K.
Consider “N91A: GGBP 183C acrylodan conjugate with mutation N91A”, for which the Tm/K in data set [1] is 326 K.
Turning to “N211A: GGBP 183C acrylodan conjugate with mutation N211A”, the Tm/K in data set [1] was 317 K.
The same measure, in the same setting: with “N211F: GGBP 183C acrylodan conjugate with mutation N211F” the figure was 323 K; with “N211H: GGBP 183C acrylodan conjugate with mutation N211H”, 320 K; with “N211K: GGBP 183C acrylodan conjugate with mutation N211K”, 315 K.
As to “N211M: GGBP 183C acrylodan conjugate with mutation N211M”, the Tm/K in data set [1] turned out to be 317 K.
With “N211Q: GGBP 183C acrylodan conjugate with mutation N211Q”, in data set [1], the Tm/K is listed as 317 K. Moreover, the Kd in data set [2] (setting [7]) was determined as 29 mM. Further, the Kd in data set [2] (setting [8]) is 22 mM. In data set [3], the “Response Intensity^c” value is “—” and the “Response Shape^b” value was “d”.
Consider “N211S: GGBP 183C acrylodan conjugate with mutation N211S”, for which the Tm/K in data set [1] came to 319 K.
For the substance “N211W: GGBP 183C acrylodan conjugate with mutation N211W”, the Tm/K in data set [1] was 328 K.
Take “N211Y: GGBP 183C acrylodan conjugate with mutation N211Y”: the Tm/K in data set [1] amounted to 316 K.
“N256A: GGBP 183C acrylodan conjugate with mutation N256A”: the Tm/K in data set [1] came out at 324 K.
With “N256D: GGBP 183C acrylodan conjugate with mutation N256D”, the Tm/K in data set [1] was 321 K.
For “R158A: GGBP 183C acrylodan conjugate with mutation R158A”, the Tm/K in data set [1] came to 322 K.
Consider “R158K: GGBP 183C acrylodan conjugate with mutation R158K”, for which the Tm/K in data set [1] is 318 K.
In the case of “Y10A: GGBP 183C acrylodan conjugate with mutation Y10A”, the Tm/K in data set [1] was found to be 326 K.
